According to the supplement of paper PMC12042874:
± gives the uncertainty stated by the source.

experiment: amyloid nucleation score (Sup35N fusion, yeast selection) (log enrichment); library NNK2; higher = more nucleation; inactive = no reads after selection
Procedure, shortened: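 Psi-negative yeast expressed Sup35N fused to peptides of 20 random codons. They were induced 24 hours with 100 μM copper sulfate, grown 7 days at 30°C without adenine and uracil, and their plasmid inserts from input and output were Illumina-sequenced. The nucleation score is the DiMSum log enrichment of output over input reads, centred on the mode score of non-aggregating sequences. Sequences with under 100 input reads were excluded.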

Substance	amyloid nucleation score
HIVVTKTWAGQRHVQFIM	1.07 ± 0.26
HKGCIIVWKTKRGLCRSARC	-0.384 ± 0.79
HKGYCVRIIT	-0.335 ± 0.26
HKKCSRKKFPAPRPSRTNTS	-0.605 ± 0.48
HKRCVITLLWADL	0.344 ± 0.41
HKVFISLLCWEKMQKGLTQ	-0.295 ± 0.55
HLCGGHGLVFFWGFVTMKCG	0.369 ± 0.8
HLESAWSRVSTDRCTNTWTV	0.506 ± 0.45
HLFPAGRSKTHAVFWFQGKG	0.412 ± 0.37
HLFTSCYYYMPLYLLSQRQY	6.095 ± 0.044
HLGRG	0.126 ± 0.45
HLLLEKDPSVWLWPKNRPGS	3.35 ± 0.088
HLLQRLSRGHMSALKTRLSW	0.123 ± 1
HLMRLHY	-1.78 ± 1.1
HLNNCALGTDLILNALDVS	-0.426 ± 0.54
HLPVSLFYRDS	0.165 ± 0.41
HLRQWDEYLETGCVN	0.32 ± 0.33
HLSCKVIENGLWTSFCFKQE	-1.04 ± 0.54
HLSRFKWKHLFLNTVLTFAV	inactive
HLSRPGDAYTVMFT	5.845 ± 0.036
HLVIGFHYSCHGFFLRSFGH	inactive
HLVMCMARVGTTVNLMSHQT	6.304 ± 0.057
HMCHTVLHVSAGY	0.246 ± 0.8
HMDHARLEVLTVILLGVWGF	5.11 ± 0.089
HMLAPCFNM	-1.58 ± 0.78

Substance	amyloid nucleation score
HMMHSWAFL	3.81 ± 0.047
HNLFNHIADNQGRGIEEKLT	-0.003 ± 1.1
HNNFIFYFLLNLMICVHYGQ	6.066 ± 0.036
HNNGRSFYEKAMVDLGGAWL	0.263 ± 0.64
HNRISQRRLRLGLRGHWSRK	0.691 ± 0.53
HNSLMRMVWLNKHPK	-0.095 ± 0.8
HNSMSWFR	4.45 ± 0.058
HNTAMGLELVPQKKNGVK	-0.06 ± 1
HQMQACLVLG	5.736 ± 0.053
HQMRFPGSPMATVGSLRTCR	-0.528 ± 0.42
HREKAGSPSCREI	-0.347 ± 1
HRRVCLDAYTFTFLNMVLAW	-0.187 ± 0.65
HRSYCGFICASVLSAGPVHR	-0.31 ± 1.1
HRTLMIVKLCKRSGPFIL	-1.22 ± 0.42
HRYISNISKYESKNWRVPVG	inactive
HSKTYLKGRLCNSLVWSYES	0.712 ± 0.47
HSLFSIAWFVAQYMNFGPDN	3.1 ± 0.18
HSLLLRWNGYSM	4.92 ± 0.1
HSLSFLMNSFMRYRSCLVVA	-0.119 ± 0.26
HSLVCDN	-0.122 ± 0.39
HSNALCLRFVLLPLSGIDIM	-0.295 ± 0.54
HSSIIKSVAWAFNYDA	0.159 ± 0.42
HSSLFSYREQLYTSFCNIGM	4.99 ± 0.067
HSWAKMFMMLWGTMSRWDRA	-0.205 ± 0.62
HTDCYLWLKLYSTLGILFVF	inactive

Substance	amyloid nucleation score
HTDLTSKFFYLNWCGLSLLR	3.39 ± 0.072
HTKMTIWNVVQC	-0.517 ± 0.63
HTTDEISAS	1.09 ± 0.36
HVFLINLGLNCGQRYRYRSL	6.044 ± 0.047
HVKRD	3.23 ± 0.16
HVKTTYQLAFSNEQIM	-0.673 ± 0.48
HVSKAVNLG	0.52 ± 0.56
HVVVDCISNCEFTCMWCSAY	5.57 ± 0.06
HVWLDLTYGNILQNRNCLTW	-0.335 ± 0.25
HWFNSTRK	0.187 ± 0.36
HWLNLCP	-0.512 ± 0.48
HWNMLSIENLAHVEIIRLGS	7.085 ± 0.043
HWTYTFRLNSSSSIYQNCSD	-0.71 ± 1
HWYTAMVYIFKRQD	0.974 ± 0.091
HYAANVVRISYCGGHSRANF	5.1 ± 0.077
HYRDPFVKRLMKPVGRPATL	0.192 ± 0.55
HYVERWDDAHVFYGWKSDAV	inactive
HYVPDPDITL	-0.504 ± 0.32
HYYIHSFNMYPVGSRLVPYE	-0.065 ± 0.42
IAAYLLNSQYDSCNVDEKRH	-0.448 ± 0.39
IAFGAGCLMWSR	8.335 ± 0.063
IAFRTSLYRD	-1.39 ± 0.48
IALKFFH	0.882 ± 0.3
IASTVDFKSLIISGDPSRQF	-0.235 ± 0.46
IAVATSGP	0.84 ± 0.46

Substance	amyloid nucleation score
IAVRDALVSVQLLPPENVGV	1.13 ± 0.15
IAVRMALGLENNKFFLIVHK	-1.44 ± 0.55
IAYATPPSHGAC	1.32 ± 0.15
IAYNMRNGH	0.949 ± 0.74
ICCTSSANNSTPPQSCWTPK	5.84 ± 0.076
ICDDNVAVEWLRLTVCTFRL	0.396 ± 0.28
ICFWMACKIECCQQRTNFVS	-0.139 ± 0.26
ICISWPINLCMV	2.6 ± 0.22
ICQCGYFWF	2.8 ± 0.15
ICSPVQSAPSRAEKND	-0.297 ± 0.45
ICSTVSVIKT	-0.249 ± 0.64
ICYFLKGAFRR	-0.493 ± 0.78
ICYILILYTELVRSSLPFLG	inactive
IDCSFSFFVSPFRHPHSQED	4.87 ± 0.092
IDHNTSRC	0.023 ± 0.76
IDKICFKTDLIVFCRGLNPC	1.9 ± 0.19
IDKSG	2.44 ± 0.14
IDLSLNLGVRGVRQDETLFA	inactive
IDPADVGILSCCFLNDSKHE	0.467 ± 0.46
IDQLLGLDRSCCVNL	0.387 ± 0.8
IDSFDPGFRRHLDRSWIRRH	0.105 ± 1.1
IDVLTQLNSFRMNFYVSANI	-0.868 ± 1.1
IDWIGPIYMHIAVMMVTVFQ	4.924 ± 0.033
IDYVFAAGDKWWVSVLL	-0.412 ± 1.1
IEGYYGASRVRGMSMGLLWV	-0.17 ± 0.79

Substance	amyloid nucleation score
IEKSMLVVLGINVRVSMGVG	0.175 ± 0.24
IFANVFANWHVGYLFTGSYY	4.02 ± 0.081
IFASSYVLSHYILGGHRSRK	2.7 ± 0.1
IFEHS	0.346 ± 0.61
IFFFWVLMRYW	-0.689 ± 0.55
IFFLPVTCTWGTQWRL	1.56 ± 0.15
IFGSLLNMIYMV	2.5 ± 0.21
IFHCGLLRALRFSSHLYWVG	0.505 ± 0.51
IFHPSLTSRIPINTRHKVT	4.4 ± 0.065
IFIMQTHFTGRVCPSSVKLP	4.99 ± 0.066
IFNKYLVIFSIFI	6.747 ± 0.037
IFNVHMVRF	9.317 ± 0.052
IFNVSLGYLTLIMVHYEFLH	5.733 ± 0.042
IFNVSMSIVRSLVITCMWGL	5.321 ± 0.043
IFPFLDFRRFFLVYHVGPIS	2.4 ± 0.24
IFRISPSLGKRYGVRPERSW	1.32 ± 0.38
IFRSMFILTYPGSRYNDEYL	4.13 ± 0.061
IFRTFFIYKEFCGFLWCVGG	1.02 ± 0.32
IFTYCVWSFSWFW	7.302 ± 0.053
IFVLVS	0.131 ± 0.38
IFWYRCNINSGCEQVVYWGN	5.311 ± 0.033
IGCFTLR	1.58 ± 0.088
IGFDFRTA	0.418 ± 0.62
IGISWLATWPIEFTRLSRMV	1.53 ± 0.52
IGKSEYVEFRLTSSP	0.354 ± 0.53

Substance	amyloid nucleation score
IGLDRWLMSLRRYAMHK	-0.089 ± 0.18
IGNAMHSLHSIHVRCRHSLE	0.713 ± 0.74
IGRCDELGRCRTRARACSGL	7.78 ± 0.084
IGRSMGRTFWR	1.5 ± 0.18
IGSRS	-1.25 ± 0.48
IGYVEAWWVFLVGSDAVRAP	-0.018 ± 1.1
IHICKQTCG	0.812 ± 0.3
IHLHYNVDNCTFELLK	-0.499 ± 0.26
IHLLPLPYEVPSLLCTSRGP	0.258 ± 0.4
IHNDCKLPMFVIMFS	6 ± 0.082
IHSEFHKSY	inactive
IIGASCTNNSRMVLVWATVF	-0.76 ± 1
IIHYAFSRNWSP	1.54 ± 0.31
IIKANVSVRYVFDKFHKMVH	2.83 ± 0.094
IIKLPWFWDAFKAARQ	-0.069 ± 0.3
IINSDLMCLVNLFVNDSMRG	8.093 ± 0.059
IIRDPTACTFLVCVSYME	6.27 ± 0.059
IIWPPMSWELISLNCQCVRK	-0.413 ± 0.63
IIWYTTFVDLLTIIDDGRLW	0.499 ± 0.49
IIYYIMVTFWYSVYQPFRSF	-0.081 ± 0.79
IKATCAGSNIFDNLALKDAS	inactive
IKCFAMGETFLAKVVHCTCW	4.04 ± 0.065
IKSSAFGAGVQLAAQRSVIT	-0.432 ± 0.29
IKTRKHSGIMAC	0.552 ± 0.32
ILAQNCSFYLGVTLRIARRH	1.21 ± 0.43

Substance	amyloid nucleation score
ILGHLYLKIKKLSFVM	-0.658 ± 1
ILGISCVFY	7.227 ± 0.072
ILGLFSFPKMPMVDYNIWMR	-0.137 ± 1.1
ILGLPSINSSISLHKTITDP	2.86 ± 0.056
ILIMRKENGCLRELCFFCRA	inactive
ILIWVVNLYAYVNYFM	3.1 ± 0.062
ILKPDMWFKGARCDTNQLNC	-0.62 ± 0.39
ILKPYCVCDLSNKLE	0.199 ± 0.4
ILLGYIISR	-0.636 ± 0.79
ILLRWNSTSTEVHHVGPTWV	0.872 ± 0.42
ILNLLLVCLRIFDGLYLTRY	-1.06 ± 1.1
ILNNMIL	2.55 ± 0.21
ILNPFCTRFK	-2.26 ± 0.64
ILSCVARGCYYTTL	-1.38 ± 1.1
ILSNMGSMVFTLCNRDSMLR	-0.523 ± 1
ILSPTSL	1.26 ± 0.52
ILVYASWLGYHLDICSGFRS	1.64 ± 0.089
ILWDRISFNMLRLTRCRFFF	-0.632 ± 1.1
ILYGVLTPYFHAVI	-0.003 ± 0.65
IMIMYFCCDMGRLGP	8.458 ± 0.056
IMKYAHFNLK	0.788 ± 0.51
IMMQDWGIGFAFIGSPCRCD	9.01 ± 0.048
IMNGLMDFMLTKVLKDMFNW	-0.249 ± 1.1
IMSMGGVLMFWS	3.66 ± 0.12
